Source: patent publication US20100297101A1 (Scripps Research, published 2010)
Each block holds one molecule with its values, some of them ahead of it. Bridges are numbered along the chain shown (N, C = ends). Where no end group is shown, it is not given here.

Experiments:
[1] = target: native integrin αIIbβ3 expressed on the surface of human platelets (human) (UniProt P08514); test: cell-based or functional assay
[2] = target: human integrin αIIbβ3 (purified, Enzyme Research Laboratories) (human) (UniProt P08514); test: competitive ELISA: inhibition of biotinylated human fibrinogen binding to immobilised human integrin αIIbβ3
[3] = target: T1, human integrin αIIbβ3 (purified, Enzyme Research Laboratories) (human, UniProt P08514 32-1039; P05106 27-788); test: competitive ELISA: inhibition of biotinylated fibrinogen binding to immobilised integrin αIIbβ3
T1 construct: Bought protein, coated on ELISA plates or used in solution; also called integrin αIIββ3; GPIIb/IIIa

Molecule: Fab abciximab (ReoPro)
EC50, required concentration for 50% inhibition in a human platelet aggregation assay [1]: 45 nM
IC50 [2]: 90 nM

B1: cyclic peptide VWCRADRRC (peptide)
peptide: VWCRADRRC
modifications: disulfide 3-9 (inferred); not fully specified
IC50 [3]: 1200 nM

The remaining lines, values ahead:

IC50 [3]: 11000 nM
B2: cyclic peptide VVCRADRRC (peptide)
peptide: VVCRADRRC
modifications: disulfide 3-9 (inferred)
notes: Synthetic nonapeptide (Peptron)

IC50 [3]: 4200 nM
B3: cyclic peptide VWCRADKRC (peptide)
peptide: VWCRADKRC
modifications: disulfide 3-9 (inferred)
